Source: article PMC8282340

Key:
[1] = biological target: fluorescent BID peptide (human); assay: FP; conditions: natural protein
[2] = biological target: fluorescent NOXA peptide (human); assay: FP; conditions: natural protein
[3] = biological target: NOXA peptide fused to the C-terminal half of T7 RNAP; assay: luciferase assay; conditions: parent: est. 1.0; read off a plot

Chain of human MCL-1 fused to the N-terminal half of T7 RNAP (Q07820 whole entry, the tested form may be a part): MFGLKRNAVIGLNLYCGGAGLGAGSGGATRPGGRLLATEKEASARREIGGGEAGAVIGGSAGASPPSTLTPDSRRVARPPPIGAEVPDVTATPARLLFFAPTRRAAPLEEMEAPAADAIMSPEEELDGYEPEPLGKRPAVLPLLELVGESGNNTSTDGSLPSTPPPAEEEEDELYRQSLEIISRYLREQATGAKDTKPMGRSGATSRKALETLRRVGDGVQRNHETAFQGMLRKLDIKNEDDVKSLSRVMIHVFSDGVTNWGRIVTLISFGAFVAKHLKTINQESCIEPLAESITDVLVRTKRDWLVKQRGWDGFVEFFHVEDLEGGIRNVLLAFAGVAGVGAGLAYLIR
Chain of fluorescent BID peptide (human) (P55957 79-99): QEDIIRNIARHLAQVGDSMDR
Chain of fluorescent NOXA peptide (human) (Q13794 19-43): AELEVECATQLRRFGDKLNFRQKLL

Kd [1] [nM] | Kd [2] [nM] | ratio to parent [3] | Substance
 |  | 1.1 | human MCL-1 fused to the N-terminal half of T7 RNAP a167T; g202S
 |  | 3.8 | human MCL-1 fused to the N-terminal half of T7 RNAP n200S; f258V

More lines, now with the values behind:

Substance | Kd [1] [nM] | Kd [2] [nM] | ratio to parent [3]
human MCL-1 fused to the N-terminal half of T7 RNAP | 14.7 | 9.79 | 
human MCL-1 fused to the N-terminal half of T7 RNAP g202N; d263A |  |  | 0.84
human MCL-1 fused to the N-terminal half of T7 RNAP v189G |  |  | 3.8
